Measurements published in patent US20240352128A1 (published 2024).

T1: human CD16b as FACS target of FIGS. 6B-10B (human, UniProt O75015 17-200)
T1 chain: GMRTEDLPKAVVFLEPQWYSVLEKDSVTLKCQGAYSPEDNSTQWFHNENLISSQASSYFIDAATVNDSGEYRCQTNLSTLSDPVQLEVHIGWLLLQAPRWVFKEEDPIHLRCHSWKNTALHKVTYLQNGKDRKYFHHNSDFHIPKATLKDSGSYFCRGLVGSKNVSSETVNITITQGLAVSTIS

T2: cynomolgus monkey CD16a on HEK293 cells expressing cyno monkey CD16a (constructed by Genscript) (cynomolgus monkey, UniProt Q8SPW2 17-254)
T2 chain: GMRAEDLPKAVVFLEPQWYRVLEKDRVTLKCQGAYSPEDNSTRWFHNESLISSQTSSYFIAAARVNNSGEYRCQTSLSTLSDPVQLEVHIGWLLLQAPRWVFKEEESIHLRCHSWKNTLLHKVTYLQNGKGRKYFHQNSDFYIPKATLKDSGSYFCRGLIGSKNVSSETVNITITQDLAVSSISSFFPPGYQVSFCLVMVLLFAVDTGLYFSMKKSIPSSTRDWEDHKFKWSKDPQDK


Columns and labels:
[1] = biological target: T1, human CD16b as FACS target of FIGS. …; assay: FACS
[2] = biological target: human CD16a on HEK293 cells expressing human CD16a (constructed by Genscript) (human, UniProt P08637 17-254); assay: FACS
Chain of human CD16a on HEK293 cells expressing human CD16a (constructed by Genscript) (P08637 17-254): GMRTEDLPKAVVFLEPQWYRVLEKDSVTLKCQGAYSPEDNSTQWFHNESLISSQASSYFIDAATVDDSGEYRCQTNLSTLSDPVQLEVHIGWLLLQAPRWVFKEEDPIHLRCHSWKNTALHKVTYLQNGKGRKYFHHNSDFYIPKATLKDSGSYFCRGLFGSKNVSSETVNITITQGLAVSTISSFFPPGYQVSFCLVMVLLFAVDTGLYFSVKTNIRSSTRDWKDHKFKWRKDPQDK

[3] = biological target: T2, cynomolgus monkey CD16a on HEK293 cells …; assay: FACS
[4] = biological target: recombinant human CD16a-His protein (Acro Biosystems; catalog #: CDA-H52S1) (human, UniProt P08637 17-208); assay: ELISA (OD450; legend says FACS)
Chain of recombinant human CD16a-His protein (Acro Biosystems; catalog #: CDA-H52S1) (P08637 17-208): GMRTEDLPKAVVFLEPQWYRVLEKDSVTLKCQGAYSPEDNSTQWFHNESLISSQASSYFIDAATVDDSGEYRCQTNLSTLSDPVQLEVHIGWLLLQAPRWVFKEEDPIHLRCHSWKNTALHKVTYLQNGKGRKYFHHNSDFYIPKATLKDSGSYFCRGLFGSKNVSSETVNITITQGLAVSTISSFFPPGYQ

Binder	EC50 [1] [µM]	EC50 [2] [µM]	EC50 [3] [µM]	EC50 [4] [µg/mL]
pTT5-AR8804-3.2 mIgG1Fc (Fc fusion) heavy: QVQLVESGGGVVQPGGSLRLSCAASGSSVSRYAMAWYRQAPGKGREWVAVVRITGIPIYADFVKGRFTISRDNSKNTLYLQMNSLRAEDTAVYYCATGNFNTYTRRYSPSETWGKGTTVTVSSVPRDCGCKPCICTVPEVSSVFIFPPKPKDVLTITLTPKVTCVVVDISKDDPEVQFSWFVDDVEVHTAQTQPREEQFNSTFRSVSELPIMHQDWLNGKEFKCRVNSAAFPAPIEKTISKTKGRPKAPQVYTIPPPKEQMAKDKVSLTCMITDFFPEDITVEWQWNGQPAENYKNTQPIMDTDGSYFVYSKLNVQKSNWEAGNTFTCSVLHEGLHNHHTEKSLSHSPGK	~195	0.000444	0.000928	–
pTT5-AR8820-2.3mIgG1Fc (Fc fusion) VHH-Fc: EVQLVESGGGLIQPGGSLRLSCAASGSSISRYAMAWYRQAPGKGRELVSVVRITGSPIYADFVGGRFTISRDNSKNTLYLQMNSLRAEDTAVYYCNRGNFNTYTRRYSPSETWGQGTTVTVSSVPRDCGCKPCICTVPEVSSVFIFPPKPKDVLTITLTPKVTCVVVDISKDDPEVQFSWFVDDVEVHTAQTQPREEQFNSTFRSVSELPIMHQDWLNGKEFKCRVNSAAFPAPIEKTISKTKGRPKAPQVYTIPPPKEQMAKDKVSLTCMITDFFPEDITVEWQWNGQPAENYKNTQPIMDTDGSYFVYSKLNVQKSNWEAGNTFTCSVLHEGLHNHHTEKSLSHSPGK	~167	0.000332	0.000745	–
pTT5-AR8820-1.3mIgG1Fc (Fc fusion) heavy: QVQLVESGGGVVQPGGSLRLSCAASGSSISRYAMAWYRQAPGKGRELVAVVRITGSPIYADFVGGRFTISRDNSKNTLYLQMNSLRAEDTAVYYCNTGNFNTYTRRYSPSETWGKGTTVTVSSVPRDCGCKPCICTVPEVSSVFIFPPKPKDVLTITLTPKVTCVVVDISKDDPEVQFSWFVDDVEVHTAQTQPREEQFNSTFRSVSELPIMHQDWLNGKEFKCRVNSAAFPAPIEKTISKTKGRPKAPQVYTIPPPKEQMAKDKVSLTCMITDFFPEDITVEWQWNGQPAENYKNTQPIMDTDGSYFVYSKLNVQKSNWEAGNTFTCSVLHEGLHNHHTEKSLSHSPGK	–	0.000384	0.000772	–
pTT5-AR8804-3.3mIgG1Fc (Fc fusion) heavy: QVQLVESGGGVVQPGGSLRLSCAASGSSVSRYAMAWYRQAPGKGRELVAVVRITGIPIYADFVKGRFTISRDNSKNTLYLQMNSLRAEDTAVYYCNTGNFNTYTRRYSPSETWGKGTTVTVSSVPRDCGCKPCICTVPEVSSVFIFPPKPKDVLTITLTPKVTCVVVDISKDDPEVQFSWFVDDVEVHTAQTQPREEQFNSTFRSVSELPIMHQDWLNGKEFKCRVNSAAFPAPIEKTISKTKGRPKAPQVYTIPPPKEQMAKDKVSLTCMITDFFPEDITVEWQWNGQPAENYKNTQPIMDTDGSYFVYSKLNVQKSNWEAGNTFTCSVLHEGLHNHHTEKSLSHSPGK	–	0.000412	0.000838	–
pTT5-AR8820-1.1mIgG1Fc (Fc fusion) heavy: QVQLVESGGGVVQPGGSLRLSCAASGSSISRYAMAWYRQAPGKGRELVAVVRITGSPIYADFVGGRFTISRDNSKNTLYLQMNSLRAEDTAVYYCATGNFNTYTRRYSPSETWGKGTTVTVSSVPRDCGCKPCICTVPEVSSVFIFPPKPKDVLTITLTPKVTCVVVDISKDDPEVQFSWFVDDVEVHTAQTQPREEQFNSTFRSVSELPIMHQDWLNGKEFKCRVNSAAFPAPIEKTISKTKGRPKAPQVYTIPPPKEQMAKDKVSLTCMITDFFPEDITVEWQWNGQPAENYKNTQPIMDTDGSYFVYSKLNVQKSNWEAGNTFTCSVLHEGLHNHHTEKSLSHSPGK	~65.6	0.00038	0.00092	–
pTT5-AR8820-2.1mIgG1Fc (Fc fusion) VHH-Fc: EVQLVESGGGLIQPGGSLRLSCAASGSSISRYAMAWYRQAPGKGRELVSVVRITGSPIYADFVGGRFTISRDNSKNTLYLQMNSLRAEDTAVYYCATGNFNTYTRRYSPSETWGQGTTVTVSSVPRDCGCKPCICTVPEVSSVFIFPPKPKDVLTITLTPKVTCVVVDISKDDPEVQFSWFVDDVEVHTAQTQPREEQFNSTFRSVSELPIMHQDWLNGKEFKCRVNSAAFPAPIEKTISKTKGRPKAPQVYTIPPPKEQMAKDKVSLTCMITDFFPEDITVEWQWNGQPAENYKNTQPIMDTDGSYFVYSKLNVQKSNWEAGNTFTCSVLHEGLHNHHTEKSLSHSPGK	~7840	0.000494	0.000787	–
AR8875 sdAb fusion protein with mIgG1 Fc (Fc fusion) QVQLVESGGGLVQPGGSLRLSCAASGFTFSNYAMTWVRQAPGKGLEWVSSIDRGGSITSYADSVKGRFAISRDNAKNTMYLQMNNLRPEDTARYVCARGDSTYSRLTAAYRGQGTQVTVSSVPRDCGCKPCICTVPEVSSVFIFPPKPKDVLTITLTPKVTCVVVDISKDDPEVQFSWFVDDVEVHTAQTQPREEQFNSTFRSVSELPIMHQDWLNGKEFKCRVNSAAFPAPIEKTISKTKGRPKAPQVYTIPPPKEQMAKDKVSLTCMITDFFPEDITVEWQWNGQPAENYKNTQPIMDTDGSYFVYSKLNVQKSNWEAGNTFTCSVLHEGLHNHHTEKSLSHSPGK	–	–	–	0.018
AR8776 sdAb fusion protein with mIgG1 Fc (Fc fusion) AVQLVESGGGLVQPGGSLRLSCAASGFTFSNYAMSWVRQAPGKGLEWVSSINRGGSITNYADSVKGRFAISRDNAKNTIYLQMNNLRPEDTAQYSCARGDSTYSRLSAAYRGQGTQVTVSSVPRDCGCKPCICTVPEVSSVFIFPPKPKDVLTITLTPKVTCVVVDISKDDPEVQFSWFVDDVEVHTAQTQPREEQFNSTFRSVSELPIMHQDWLNGKEFKCRVNSAAFPAPIEKTISKTKGRPKAPQVYTIPPPKEQMAKDKVSLTCMITDFFPEDITVEWQWNGQPAENYKNTQPIMDTDGSYFVYSKLNVQKSNWEAGNTFTCSVLHEGLHNHHTEKSLSHSPGK	–	–	–	0.0155
AR8887 sdAb fusion protein with mIgG1 Fc (Fc fusion) QVQLVESGGGLVQAGGSLRLSCAVSGFLYYSIGWFRQAPGKEREWVSCISRSGAGTSYANSVKGRSTISRDNDKNTVYLQMNSLKSEDTAVYYCARRATSSCTATMTRGQYDYWGQGTQVTVSSVPRDCGCKPCICTVPEVSSVFIFPPKPKDVLTITLTPKVTCVVVDISKDDPEVQFSWFVDDVEVHTAQTQPREEQFNSTFRSVSELPIMHQDWLNGKEFKCRVNSAAFPAPIEKTISKTKGRPKAPQVYTIPPPKEQMAKDKVSLTCMITDFFPEDITVEWQWNGQPAENYKNTQPIMDTDGSYFVYSKLNVQKSNWEAGNTFTCSVLHEGLHNHHTEKSLSHSPGK	–	–	–	0.0217
AR8866 sdAb fusion protein with mIgG1 Fc (Fc fusion) QVKLEESGGGLVQPGGSLRLSCVASGFTFSVWTMSWVRQAPGKGLEWVSDISHSGIYTTYADSVKGRFTISRDNAKNTLWLQLNALKPEDTAVYYCAQGNRRNSMLSGTLRGQGTQVTVSSVPRDCGCKPCICTVPEVSSVFIFPPKPKDVLTITLTPKVTCVVVDISKDDPEVQFSWFVDDVEVHTAQTQPREEQFNSTFRSVSELPIMHQDWLNGKEFKCRVNSAAFPAPIEKTISKTKGRPKAPQVYTIPPPKEQMAKDKVSLTCMITDFFPEDITVEWQWNGQPAENYKNTQPIMDTDGSYFVYSKLNVQKSNWEAGNTFTCSVLHEGLHNHHTEKSLSHSPGK	–	–	–	0.0174
AR8861 sdAb fusion protein with mIgG1 Fc (Fc fusion) AVQLVDSGGGLVQPGGSLRLSCVASGFTFSIWTMSWVRQAPGKGLEWVSDISHSGLYTTYADSVKGRFTISRDNAKNTLWLQLNALKPEDTAVYYCAQGNRRTSMLSGTLRGQGTQVTVSSVPRDCGCKPCICTVPEVSSVFIFPPKPKDVLTITLTPKVTCVVVDISKDDPEVQFSWFVDDVEVHTAQTQPREEQFNSTFRSVSELPIMHQDWLNGKEFKCRVNSAAFPAPIEKTISKTKGRPKAPQVYTIPPPKEQMAKDKVSLTCMITDFFPEDITVEWQWNGQPAENYKNTQPIMDTDGSYFVYSKLNVQKSNWEAGNTFTCSVLHEGLHNHHTEKSLSHSPGK	–	–	–	0.0227
AR8820 sdAb fusion protein with mIgG1 Fc (Fc fusion) QVKLEESGGGLVQAGGSLRLSCAASGSSISRYAMAWYRQGPGKERELVAVVRITGSPIYADFVGGRFTISRDNAKSTVLLQMNSLKPEDTAIYYCNTGNFNTYTRRYSPSETWGQGTQVTVSSVPRDCGCKPCICTVPEVSSVFIFPPKPKDVLTITLTPKVTCVVVDISKDDPEVQFSWFVDDVEVHTAQTQPREEQFNSTFRSVSELPIMHQDWLNGKEFKCRVNSAAFPAPIEKTISKTKGRPKAPQVYTIPPPKEQMAKDKVSLTCMITDFFPEDITVEWQWNGQPAENYKNTQPIMDTDGSYFVYSKLNVQKSNWEAGNTFTCSVLHEGLHNHHTEKSLSHSPGK	–	–	–	0.0151
AR8804 sdAb fusion protein with mIgG1 Fc (Fc fusion) AVQLVDSGGGLVQAGGSLRLSCAASGSSVSRYAMAWYRQAPGKERELVAVVRITGIPIYADFVKGRFTISRDNAKNTVLLQMNSLEPEDTAIYYCNTGNFNTYTRRYSPSETWGQGTQVTVSSVPRDCGCKPCICTVPEVSSVFIFPPKPKDVLTITLTPKVTCVVVDISKDDPEVQFSWFVDDVEVHTAQTQPREEQFNSTFRSVSELPIMHQDWLNGKEFKCRVNSAAFPAPIEKTISKTKGRPKAPQVYTIPPPKEQMAKDKVSLTCMITDFFPEDITVEWQWNGQPAENYKNTQPIMDTDGSYFVYSKLNVQKSNWEAGNTFTCSVLHEGLHNHHTEKSLSHSPGK	–	–	–	0.0158
